The source of these data is patent US20240376151A1 (FOG PHARMACEUTICALS, published 2024).

Bridge positions count the residues as written; N and C are the ends.

The target in experiment [1] is T1, PPIA, full length (residues 1-165) (human, UniProt P62937 1-165).
T1 construct: also called Cyclophilin A; peptidyl-prolyl cis-trans isomerase A
The experiment in a line: SPR, affinity fit. In general terms: In SPR one partner is held on a chip, and binding of the other changes the refractive index at the surface.

For experiment [2], the target named is T2, beta-catenin Armadillo domain, residues 134-665 (human, UniProt P35222 134-665, biotinylated through the N-terminal yBBr tag for SPR; tag cleaved off for crystallography).
T2 construct: also called β-catenin; CTNNB1
T2 sequence: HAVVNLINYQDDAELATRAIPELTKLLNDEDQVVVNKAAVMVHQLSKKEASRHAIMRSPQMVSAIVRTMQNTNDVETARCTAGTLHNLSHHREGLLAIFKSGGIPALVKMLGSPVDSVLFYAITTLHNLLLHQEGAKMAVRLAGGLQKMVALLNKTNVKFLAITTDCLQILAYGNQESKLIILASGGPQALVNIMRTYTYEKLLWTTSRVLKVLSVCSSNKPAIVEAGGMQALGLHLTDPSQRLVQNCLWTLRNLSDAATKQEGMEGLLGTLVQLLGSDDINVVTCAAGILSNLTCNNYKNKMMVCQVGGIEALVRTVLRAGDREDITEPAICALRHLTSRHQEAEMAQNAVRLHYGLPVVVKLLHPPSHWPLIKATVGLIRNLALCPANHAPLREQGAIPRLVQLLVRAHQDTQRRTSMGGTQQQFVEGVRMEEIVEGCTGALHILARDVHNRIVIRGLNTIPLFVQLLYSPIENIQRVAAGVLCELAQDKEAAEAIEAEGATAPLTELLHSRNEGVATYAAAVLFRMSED
The experiment in a line: SPR, immobilized β-catenin, MDM2 flowed in the presence of 1 µM Helicon H330 (1.m112).

Experiment [3] addresses T2, beta-catenin Armadillo domain, residues …. The experiment in a line: SPR, immobilized β-catenin, MDM2 flowed in the presence of 1 µM Helicon H332 (1.m114).
The target in experiment [4] is T3, active CDK2 (with T160 phosphorylated) (Homo sapiens (Human), UniProt P24941 1-298). Description: SPR, ligand CDK2 (pT160), additives 2 mM AMPPNP, 5mM MgCl2.
Experiment [5] concerns the target T3, active CDK2 (with T160 phosphorylated). The experiment in a line: SPR, ligand CDK2 (pT160), additive 200 nM Dinaciclib.
For experiment [6] the target is unchanged. The experiment in a line: SPR, ligand CDK2 (pT160), no additive.
Experiment [7] deals with CDK2:Cyclin E1 (CCNE1) complex (UniProt P24864 81-363). The experiment in a line: SPR, ligand CDK2 (pT160) : CCNE1.
The target of experiment [8] is T1, PPIA, full length (residues 1-165). Description: assay not named on the sheet; printed beside the co-crystal structure.
The target of experiment [9] is T2, beta-catenin Armadillo domain, residues …. The experiment in a line: SPR, alanine-scanning table.

T1 sequence (P62937 whole entry, the tested form may be a part): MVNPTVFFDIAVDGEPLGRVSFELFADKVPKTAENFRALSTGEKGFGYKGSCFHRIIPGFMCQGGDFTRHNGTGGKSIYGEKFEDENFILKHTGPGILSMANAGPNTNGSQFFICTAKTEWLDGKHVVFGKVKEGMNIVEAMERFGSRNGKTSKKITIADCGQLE

B1: FP29103 (peptide)
peptide: Ac-PDCHIRAYVCH-NH2
modifications: bridge 3-10; not fully specified (bridges)
notes: Cluster C54
For orientation: Kd means a measure of binding affinity in units of concentration. B1 displayed a Kd in [1] of 10000 nM.

B2: MDM2 p53-binding domain, residues 17-111, C17S (enzyme)
chain: SQIPASEQETLVRPKPLLLKLLKSVGAQKDTYTMKEVLFYLGQYIMTKRLYDEKQQHIVYCSNDLLGDLFGVPSFSVKEHRKIYTMIYRNLVVVN
notes: Form for crystallography and the FP assays
In the case of B2, the Kd in experiment [2] turned out to be 254 nM; in experiment [3], 1340 nM.

B3: FP19711 (peptide)
peptide: Ac-DPAWWVCAIAAIECSDV-NH2
modifications: bridge 7-14; not fully specified (bridges)
notes: Cluster C51
As for B3, the Kd in experiment [4] was found to be 900 nM; in experiment [5], 2000 nM; in [6], 1700 nM; in [7], 1700 nM.

B4: FP29102 (peptide)
peptide: Ac-PECHIEAYWCI-NH2
modifications: bridge 3-10; not fully specified (bridges); printed as Ac-PECHIEA YWCI-NH2
notes: Cluster C54
B4 registered a dissociation constant Kd in [8] of 11000 nM.

B5: FP33215 (peptide)
peptide: Ac-WWVCAIAAIECSD-NH2
modifications: bridge 4-11; also: Cys staple linker not named
notes: also called truncated version of FP19711
Turning to B5, the Kd in experiment [7] came out at 270 nM.

B6: FP29092 (peptide)
peptide: Ac-DPANQDCHVAAWHCWQR-NH2
modifications: bridge 7-14; not fully specified (bridges)
notes: Cluster C53
In turn, B6 displayed a Kd in [1] of 3000 nM.

B7: FP49251 (peptide)
stapled peptide: Ac-DPATARCEWAALHCELV-NH2
modifications: bridge 7-14; not fully specified (bridges); printed as Ac-DPATARCEWAALHCELV-NH2
notes: also called H-to-A member of the alanine-scanning series of FP01567
In turn, B7 yielded a Kd in experiment [9] of 400 nM.

B8: FP49258 (peptide)
stapled peptide: Ac-DPATHRCEWAALHCEAV-NH2
modifications: bridge 7-14; not fully specified (bridges); printed as Ac-DPATHRCEWAALHCEAV-NH2
notes: also called L-to-A (penultimate residue) member of the alanine-scanning series of FP01567
In [9], B8 showed a Kd of over 20000 nM.

B9: FP49255 (peptide)
stapled peptide: Ac-DPATHRCEWAAAHCELV-NH2
modifications: bridge 7-14; not fully specified (bridges); printed as Ac-DPATHRCEWAAAHCELV-NH2
notes: also called L-to-A member of the alanine-scanning series of FP01567
B9 displayed a Kd in [9] of over 20000 nM.

B10: FP49259 (peptide)
stapled peptide: Ac-DPATHRCEWAALHCELA-NH2
modifications: bridge 7-14; not fully specified (bridges)
notes: also called V-to-A (last residue) member of the alanine-scanning series of FP01567
Molecule B10 registered an equilibrium dissociation constant (Kd) in experiment [9] of over 20000 nM.

B11: FP49254 (peptide)
stapled peptide: Ac-DPATHRCEAAALHCELV-NH2
modifications: bridge 7-14; not fully specified (bridges); printed as Ac-DPATHRCEAAALHCELV-NH2
notes: also called W-to-A member of the alanine-scanning series of FP01567
With B11, in experiment [9], the Kd is over 20000 nM.

B12: FP49252 (peptide)
stapled peptide: Ac-DPATHACEWAALHCELV-NH2
modifications: bridge 7-14; not fully specified (bridges); printed as Ac-DPATHACEWAALHCELV-NH2
notes: also called R-to-A member of the alanine-scanning series of FP01567
With B12, the Kd in experiment [9] was 300 nM.

B13: FP49257 (peptide)
stapled peptide: Ac-DPATHRCEWAALHCALV-NH2
modifications: bridge 7-14; not fully specified (bridges); printed as Ac-DPATHRCEWAALHCALV-NH2
notes: also called E-to-A (after the second Cys) member of the alanine-scanning series of FP01567
In [9], B13 yielded a Kd of 1000 nM.

B14: FP49253 (peptide)
stapled peptide: Ac-DPATHRCAWAALHCELV-NH2
modifications: bridge 7-14; not fully specified (bridges); printed as Ac-DPATHRCAWAALHCELV-NH2
notes: also called E-to-A member of the alanine-scanning series of FP01567
In the case of B14, in experiment [9], the Kd was found to be 2700 nM.
